Laboratory results reported in US20230365647A1 (published 2023).

Molecular target: T1, PLY (W433F) toxoid (Streptococcus pneumoniae, UniProt P0C2J9 2-471)
T1 construct: also called Pdb PLY (W433F); Pdb (W433F)
Assay: immunofluorescence co-localization in human DCs

B1: Mannose receptor C type 1 on human monocyte-derived dendritic cells (receptor)
chain: LLDTRQFLIYNEDHKRCVDAVSPSAVQTAACNQDAESQKFRWVSESQIMSVAFKLCLGVPSKTDWVAITLYACDSKSEFQKWECKNDTLLGIKGEDLFFNYGNRQEKNIMLYKGSGLWSRWKIYGTTDNLCSRGYEAMYTLLGNANGATCAFPFKFENKWYADCTSAGRSDGWLWCGTTTDYDTDKLFGYCPLKFEGSESLWNKDPLTSVSYQINSKSALTWHQARKSCQQQNAELLSITEIHEQTYLTGLTSSLTSGLWIGLNSLSFNSGWQWSDRSPFRYLNWLPGSPSAEPGKSCVSLNPGKNAKWENLECVQKLGYICKKGNTTLNSFVIPSESDVPTHCPSQWWPYAGHCYKIHRDEKKIQRDALTTCRKEGGDLTSIHTIEELDFIISQLGYEPNDELWIGLNDIKIQMYFEWSDGTPVTFTKWLRGEPSHENNRQEDCVVMKGKDGYWADRGCEWPLGYICKMKSRSQGPEIVEVEKGCRKGWKKHHFYCYMIGHTLSTFAEANQTCNNENAYLTTIEDRYEQAFLTSFVGLRPEKYFWTGLSDIQTKGTFQWTIEEEVRFTHWNSDMPGRKPGCVAMRTGIAGGLWDVLKCDEKAKFVCKHWAEGVTHPPKPTTTPEPKCPEDWGASSRTSLCFKLYAKGKHEKKTWFESRDFCRALGGDLASINNKEEQQTIWRLITASGSYHKLFWLGLTYGSPSEGFTWSDGSPVSYENWAYGEPNNYQNVEYCGELKGDPTMSWNDINCEHLNNWICQIQKGQTPKPEPTPAPQDNPPVTEDGWVIYKDYQYYFSKEKETMDNARAFCKRNFGDLVSIQSESEKKFLWKYVNRNDAQSAYFIGLLISLDKKFAWMDGSKVDYVSWATGEPNFANEDENCVTMYSNSGFWNDINCGYPNAFICQRHNSSINATTVMPTMPSVPSGCKEGWNFYSNKCFKIFGFMEEERKNWQEARKACIGFGGNLVSIQNEKEQAFLTYHMKDSTFSAWTGLNDVNSEHTFLWTDGRGVHYTNWGKGYPGGRRSSLSYEDADCVVIIGGASNEAGKWMDDTCDSKRGYICQTRSDPSLTNPPATIQTDGFVKYGKSSYSLMRQKFQWHEAETYCKLHNSLIASILDPYSNAFAWLQMETSNERVWIALNSNLTDNQYTWTDKWRVRYTNWAADEPKLKSACVYLDLDGYWKTAHCNESFYFLCKRSDEIPATEPPQLPGRCPESDHTAWIPFHGHCYYIESSYTRNWGQASLECLRMGSSLVSIESAAESSFLSYRVEPLKSKTNFWIGLFRNVEGTWLWINNSPVSFVNWNTGDPSGERNDCVALHASSGFWSNIHCSSYKGYICKRPKIIDAKPTHELLTTKADTRKMDPSKPSSNVAGVVIIVILLILTGAGLAAYFFYKKRRVHLPQEGAFENTLYFNSQSSPGTSDMKDLVGNIEQNEHSVI
notes: also called MRC-1
binding result: no binding (tested: 0.2 µg/ml)
